Measurements reported in patent US20180086841A1 (Merck Sharp & Dohme, published 2018).
Changes are numbered by the printed parent chain.

Key:
human CD27 = target: T1, human CD27 (human, UniProt P26842 21-260); assay: flow cytometry MFI, CD4+ T cells of human PBMC, N=2 donors
T1 construct: also called hCD27; HsCD27

Q15A = target: T2, Q15A; assay: flow cytometry on CHO-K1 transfectants, right sub-column
T2 construct: also called hCD27 Q15A
T2 receptor chain: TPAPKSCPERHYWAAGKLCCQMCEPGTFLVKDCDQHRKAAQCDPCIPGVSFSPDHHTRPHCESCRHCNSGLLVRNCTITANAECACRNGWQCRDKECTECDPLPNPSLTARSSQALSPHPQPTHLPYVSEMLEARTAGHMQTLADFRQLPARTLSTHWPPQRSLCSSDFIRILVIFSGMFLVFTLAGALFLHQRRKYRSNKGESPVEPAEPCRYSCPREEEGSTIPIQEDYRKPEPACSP
Description: (§1) The hCD27 variants that were tested are listed. Amino acids correspond to the UniProt P26842-1 sequence. Amino acids 1-20 constitute the signal peptide. Binding is expressed as the geometric mean of the FITC signal, relative to antibody binding to hCD27, which was set at 100%.
(§2) The ability of several anti-hCD27 antibodies to bind to a series of hCD27 alanine mutants was determined using CHO-K1 cells, transiently transfected pCI-neo empty vector, pCI-neo.hCD27 and several pCI-neo.CD27Ala mutant constructs.
(§3) Detached cells were transferred to 96 wells round-bottomed well plates at approximately 1.2×10⁵ cells/well. After spinning down the cells, discarding the supernatants and re-suspending the cells in the residual volume, the primary antibodies were added and incubated for 30 minutes at 4° C. Cells were washed three times with DPBS/BSA 1%, followed by centrifugation, discarding of the supernatants and re-suspension in the residual volume. […] After washing once, antibody binding was detected using the HTS plate reader (FACS Canto II) and FlowJo software for data analysis. Debris, dead cells and doublets were excluded from the analysis. Binding was expressed as the geometric mean of the FITC signal, relative to antibody binding to hCD27, which was set at 100%.

D32A = target: T3, D32A; assay: as above
T3 construct: also called hCD27 D32A
T3 receptor chain: T2 receptor chain with A15Q, D32A
Description: as §1, §2, §3

H60A = target: T4, H60A; assay: as above
T4 construct: also called hCD27 H60A
T4 receptor chain: T2 receptor chain with A15Q, H60A
Description: as §1, §2, §3

N88A = target: T5, N88A; assay: as above
T5 construct: also called hCD27 N88A
T5 receptor chain: T2 receptor chain with A15Q, N88A
Description: as §1, §2, §3

E9A = target: T6, E9A; assay: as above
T6 construct: also called hCD27 E9A
T6 receptor chain: T2 receptor chain with E9A, A15Q
Description: as §1, §2, §3

H36A = target: T7, H36A; assay: flow cytometry on CHO-K1 transfectants, right sub-column, cell hatched (loss of binding)
T7 construct: also called hCD27 H36A
T7 receptor chain: T2 receptor chain with A15Q, H36A
Description: as §1, §2, §3

R37A = target: T8, R37A; assay: as above
T8 construct: also called hCD27 R37A
T8 receptor chain: T2 receptor chain with A15Q, R37A
Description: as §1, §2, §3

K38A = target: T9, K38A; assay: as above
T9 construct: also called hCD27 K38A
T9 receptor chain: T2 receptor chain with A15Q, K38A
Description: as §1, §2, §3

P8A = target: T10, P8A; assay: as above
T10 construct: also called hCD27 P8A
T10 receptor chain: T2 receptor chain with P8A, A15Q
Description: as §1, §2, §3

B1: hCD27.131A (mouse parental 131A) (antibody, mouse IgG1, V domains shown)
VH: QIQLVQSGPELKKPGETVKISCKASGYTFTNYGMNWVKQAPGKGLKWMGWINTNTGEPTYAEEFKGRFAFSLETSATTAYLQINNLKNEDTATYFCAREGDAMDYWGQGTSVTVSS
VL: QIVLTQSPAIMSASPGEKVTMTCSASSSVSYMHWYQQKSGTSPKRWIYDTSKLASGVPARFSGSGSGTSYSLTISSMEAEDAATYYCQQWNSYPFTFGSGTKLEIK
notes: Mouse IgG1 antibody; also called mouse hCD27.131A
Human CD27
  EC50: 0.0645 nM
Q15A
  binding, WT hCD27 = 100 (GM FITC): 136%
D32A
  binding, WT hCD27 = 100 (GM FITC): 62.1%
H60A
  binding, WT hCD27 = 100 (GM FITC): 129%
N88A
  binding, WT hCD27 = 100 (GM FITC): 124%
E9A
  binding, WT hCD27 = 100 (GM FITC): 132%
H36A
  binding, WT hCD27 = 100 (GM FITC): 10.8%
R37A
  binding, WT hCD27 = 100 (GM FITC): 9.6%
K38A
  binding, WT hCD27 = 100 (GM FITC): 11.8%
P8A
  binding, WT hCD27 = 100 (GM FITC): 15.9%
